Measurements taken from paper PMC10127692.

Legend:
Test in all cases: two-hybrid
[1] = target: SUD2-M (I549 to S675 of SARS-CoV-2 Nsp3), two-hybrid bait (SARS-CoV-2)
[2] = target: SUD2-N (K412 to E548 of SARS-CoV-2 Nsp3), two-hybrid bait (SARS-CoV-2)
[3] = target: BD-SUD2_(core) (SUD2-N+M, K412 to S675 of SARS-CoV-2 Nsp3, fused to the DNA binding domain) (SARS-CoV-2)

Row | Substance | LacZ reporter activity compared with SUD2-N+M [1] | LacZ reporter activity compared with SUD2-N+M [2] | fold LacZ reporter induction against full-length SUD2 [3]
1 | AD-Nsp5 (Nsp5 of SARS-CoV-2 fused to the activation domain) (from UniProt P0DTD1 3264-3569) (enzyme) | 86% | 47% | 
2 | AD-Nsp5 (Nsp5 of SARS-CoV-2 fused to the activation domain) (from UniProt P0DTD1 3264-3569) |  |  | 2.1 fold
